Laboratory results reported in the supplement of paper PMC9170038.

Legend:
[1] = test system: MS2 coat protein; test: apparent KD of MS2 coat protein, switch ON state; designed switch direction (-1 OFF switch, 1 ON switch): -1; higher = weaker reporter binding; details: FMN input: 0 or 200 uM; Eterna round: R93 (includes R88 designs)
Method in brief: (§1)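 Each design's apparent KD comes from the median of binding-curve fits to its normalised clusters. Those clusters carried RNA switches transcribed on-chip from Illumina sequencing clusters. SNAP-549-labelled MS2 coat protein was titrated onto them in twofold steps (0.7 or 1.5 nM to 3 µM; per step 0.8–1.5 h down to 10–20 min). Conditions were 100 mM Tris-HCl pH 7.5, 80 mM KCl, 4 mM MgCl2, without or with constant ligand.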

[2] = test system: MS2 coat protein; test: apparent KD of MS2 coat protein, switch OFF state (with FMN for OFF switches, without FMN for ON switches); designed switch direction (-1 OFF switch, 1 ON switch): -1; higher = weaker reporter binding; details: FMN input: 0 or 200 uM; Eterna round: R93 (includes R88 designs)
Method in brief: as §1

| Sequence | apparent KD of MS2 coat protein [1] [nM] | apparent KD of MS2 coat protein [2] [nM] |
| --- | --- | --- |
| AAAAAGUCAGGAUAUCUGGAUAGGAAAAAGAAAACCUAUCCAGAGAAGGGACAUGAGGAUCACCCAUGUAAAAA [JL cataway mod 1] | 49.2 | 42.4 |
| AAAAAGUGAGGAUAUACGGUGAGGAGUAGACACAACCUGGCGUAGAAGGCACAUGAGGAUCACCCAUGUCCAAA [EX4 Malc#13] | 37.3 | 47.8 |
| AAAAAGUGAGGAUAUGCGCUGUGGAGUAGACACGACCAGUCGUAGAAGGCACAUGAGGAUCACCCAUGUUCAAA [EX4 Malc#21] | 27.4 | 25.3 |
| AAAAAUCGAGGAUAUACAUGAGGAUCACCCAUGUAAAAAAAAAAAAAGGGAAAAAAAAGUAGAAGGCGAAAAAA [Sekhemre-Heruhirmaat Intef VII] | 58 | 30 |
| AAAAAUGGAGGAUAUACAUGAGGAUCACCCAUGUGAGACCAAGAAAAAGAAAAAGAAAGUAGAAGGCCAUAAAA [Ex 3 May 24] | 24.5 | 152 |
| AAAACACAUGAGGAUCACCCAUGUGAGGAUAUGCAUAAAAAAAAAAAAAAAAAAAAAUGCAGAAGGCACAUAAA [jn_camden] | 21 | 41.3 |
| AAAACGUGAGGAUAUGCACCAAAAAAGGUAAAACGGGUACGACAUGAGGAUCACCCAUGUAGAAGGCACGAAAA [Frodo Flailing 10 - Jieux - Exclusion 2] | 46 | 107 |
| AAAACUGGAGGAUAUACGAACAUGUCAAAAGACGUGAAGGGACAUGAGGAUCACCCAUGUAGAAGGCUAGAAAA [JL Stem Breaker 10] | 52.3 | 34.2 |
| AAAAGCACAGGAUAUACAAGGAUAUGACGAAAGUCAUAAAAACAUGAGGAUCACCCAUGUAGAAGGGUGCAAAA [Mod of Meechl's... 64% 3] | 206 | 136 |
| AAAAGGAUAGGAUAUACAUGAGGAUCACCCAUGUUUAUAAAUAAAAGAAAUAAAGAAAGUAGAAGGGUCAAGAA [LROPPY Exclusion 3 - v07_deltaG=3.4] | 19.6 | 22.4 |
| AAAAGGUGAGGAUAUACAUGAGGAUCACCCAUGUAGAAAGGAAGUGUAAAAAAAAAGUGUAGAAGGCAUCAUGA [MS2 Riboswitches On Chip Exclusion 3 wbt3] | 39.2 | 48 |
| AAAAGGUUAGGAUAUGCGUGGAAAAAGUGUAUCUAAAAAAAACAUGAGGAUCACCCAUGUAGAAGGGACUUAAA [Banishment 5 - Jieux - Exclusion 2] | 49.7 | 37.1 |
| AAAAUACAUGAGGAUCACCCAUGUUAGGAUAUCGGAUAAAUAAAAUAAAAUAAAAUAACGAGAAGGGACAAUAA [Exclusion1 Malc#2] | 24.6 | 31.6 |
| AAAAUGUCAGGAUAUGUACGAAAAAAUAAAAAAAUAAAAGUACAGAAGGGACAUGAGGAUCACCCAUGUCAGGG [EX4 392: Minimal 4] | 97.9 | 74.6 |
| AAACAACAUGAGGAUCACCCAUGUCAGGAUAUGAACGAAAUAAAAUAAAAAUAAAAGUUCAGAAGGGACGAAAA [Mat - Exclusion 1 - Eli mod - D18] | 36.7 | 50.1 |
| AAACCACAUGAGGAUCACCCAUGUAAGGAUAUGAACGAAAUAAAAUAAAAAUAAAAGUUCAGAAGGUACAAAAA [Mat - Exclusion 1 - Eli mod - D22] | 22.6 | 22.1 |
